We go through one substance from patent US20030212252A1.

For the experiment, the target named is Dog MCH receptor (dog). Description: cell-based or functional assay.
Sequence of Dog MCH receptor (dog) (Q5IJ49 other isoform, or with tags, fused parts or gaps): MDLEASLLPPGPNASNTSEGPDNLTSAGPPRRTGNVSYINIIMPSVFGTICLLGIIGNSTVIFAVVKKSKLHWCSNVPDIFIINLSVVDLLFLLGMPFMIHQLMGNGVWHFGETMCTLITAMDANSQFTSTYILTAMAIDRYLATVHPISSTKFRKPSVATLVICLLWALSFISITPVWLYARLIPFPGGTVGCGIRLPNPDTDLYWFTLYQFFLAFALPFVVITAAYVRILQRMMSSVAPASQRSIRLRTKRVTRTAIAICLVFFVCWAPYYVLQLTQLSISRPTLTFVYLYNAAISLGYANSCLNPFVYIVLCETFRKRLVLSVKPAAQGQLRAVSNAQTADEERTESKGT

Substance “Melanin-concentrating hormone (MCH) (from UniProt P20382 147-165) (peptide)” gave an EC50 for activation of the dog MCH receptor (aequorin bioluminescence, fractional response, in transfected 293-AEQ17 cells) of 30 nM.
